Reference: paper PMC9641244
Changes are numbered by the printed parent chain.

Legend:
[1] = biological target: T1, DMC1 E162A (Homo sapiens, UniProt Q14565 1-340, E162A); assay: EMSA
T1 sequence: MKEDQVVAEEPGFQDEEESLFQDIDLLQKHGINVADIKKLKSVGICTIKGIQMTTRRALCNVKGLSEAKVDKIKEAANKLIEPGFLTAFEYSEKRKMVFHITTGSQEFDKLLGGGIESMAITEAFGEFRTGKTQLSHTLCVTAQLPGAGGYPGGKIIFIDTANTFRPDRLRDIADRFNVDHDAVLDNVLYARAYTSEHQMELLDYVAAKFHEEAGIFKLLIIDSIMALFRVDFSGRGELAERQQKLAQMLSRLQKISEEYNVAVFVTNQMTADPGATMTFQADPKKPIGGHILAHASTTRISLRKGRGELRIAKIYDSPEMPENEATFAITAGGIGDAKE

[2] = biological target: T2, Dmc1 D311K (Saccharomyces cerevisiae, UniProt P25453 1-334, D311K); assay: EMSA
T2 sequence: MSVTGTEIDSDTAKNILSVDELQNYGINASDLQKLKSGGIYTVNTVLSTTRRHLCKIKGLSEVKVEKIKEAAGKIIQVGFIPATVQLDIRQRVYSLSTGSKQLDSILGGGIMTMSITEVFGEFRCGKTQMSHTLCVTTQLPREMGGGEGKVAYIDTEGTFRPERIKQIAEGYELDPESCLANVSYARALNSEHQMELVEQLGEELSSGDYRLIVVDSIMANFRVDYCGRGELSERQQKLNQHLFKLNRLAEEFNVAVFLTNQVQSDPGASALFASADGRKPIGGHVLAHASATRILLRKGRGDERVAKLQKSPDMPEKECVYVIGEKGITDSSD

[3] = biological target: T3, Dmc1 E157K (Saccharomyces cerevisiae, UniProt P25453 1-334, E157K); assay: EMSA
T3 sequence: T2 sequence with E157K, K311D

[4] = biological target: T4, DMC1 D317K (Homo sapiens, UniProt Q14565 1-340, D317K); assay: EMSA
T4 sequence: T1 sequence with A162E, D317K

[5] = biological target: T5, DMC1 D317A (Homo sapiens, UniProt Q14565 1-340, D317A); assay: EMSA
T5 sequence: T1 sequence with A162E, D317A

[6] = biological target: T5, DMC1 D317A; assay: BLI
[7] = biological target: T6, DMC1 WT (Homo sapiens, UniProt Q14565 1-340); assay: BLI
T6 sequence: T1 sequence with A162E

[8] = biological target: T4, DMC1 D317K; assay: BLI
[9] = biological target: T7, DMC1 E162K (Homo sapiens, UniProt Q14565 1-340, E162K); assay: BLI
T7 sequence: T1 sequence with A162K

Measured: binding result

B1: pR231 90-mer (ssDNA)
DNA: AAATCAATCTAAAGTATATATGAGTAAACTTGGTCTGACAGTTACCAATGCTTAATCAGTGAGGCACCTATCTCAGCGATCTGTCTATTT
binds: [1] | [2] | [3] | [4] | [5]

B2: pR231 90-mer biotinylated (ssDNA)
DNA: B1 DNA
binds: [6] | [7] | [8] | [9]
